The record followed here is publication PMC9979977.

The target of the test is Borna disease virus 1 (BoDV-1) phosphoprotein (Borna disease virus 1). Kind of test: SEC-MALS; SEC-MALLS, Superdex 200 10/300, 20°C, 20 mM HEPES pH 7.5, 150 mM NaCl, 5%(v/v) glycerol; protein applied at 1-4 mg/ml; no concentration dependence of the oligomerization. (Size exclusion chromatography separates by hydrodynamic size, large species first.)

The term stoichiometry N denotes a count of units in the complex or per binding partner. In turn, “Borna disease virus 1 (BoDV-1) phosphoprotein (natural protein)” came in with a stoichiometry N of 4.
